From patent publication US20050095247A1 (UNIVERSITY OF BRITISH COLUMBIA, published 2005)

Target: T1, calmodulin (Homo sapiens (Human), UniProt P0DP23 2-149)
T1 construct: also called calmodulin-agarose
Experiment: pull-down of purified protein on calmodulin-agarose; anti-EF-1α immunoblot

B1: macrophage EF-1α (murine, from RAW 264.7 cells) (other)
chain: GKEKTHINIVVIGHVDSGKSTTTGHLIYKCGGIDKRTIEKFEKEAAEMGKGSFKYAWVLDKLKAERERGITIDISLWKFETSKYYVTIIDAPGHRDFIKNMITGTSQADCAVLIVAAGVGEFEAGISKNGQTREHALLAYTLGVKQLIVGVNKMDSTEPPYSQKRYEEIVKEVSTYIKKIGYNPDTVAFVPISGWNGDNMLEPSANMPWFKGWKVTRKDGSASGTTLLEALDCILPPTRPTDKPLRLPLQDVYKIGGIGTVPVGRVETGVLKPGMVVTFAPVNVTTEVKSVEMHHEALSEALPGDNVGFNVKNVSVKDVRRGNVAGDSKNDPPMEAAGFTAQVIILNHPGQISAGYAPVLDCHTAHIACKFAELKEKIDRRSGKKLEDGPKFLKSGDAAIVDMVPGKPMCVESFSDYPPLGRFAVRDMRQTVAVGVIKAVDKKAAGAGKVTKSAQKAQKAK
notes: also called host EF-1α; host-EF-1α
B1: binds.
